Test system: HBG-4kb ZF (synthetic 6-zinc-finger DNA-binding domain) (synthetic construct)
Experiment: EMSA
Conditions: 10 mM Tris pH 7.5, 50 mM KCl, 5 mM MgCl2, 100 uM ZnCl2, 1 mM DTT, 0.05% Triton X-100, 2.5% glycerol, 100 ng herring sperm DNA per 20 ul, 15 nM Cy5-dsDNA …

Sequence	Kd [nM]
GAGAACTTAGTGGGGGAAAAAAAGCAGAGAGTATAT (double strand) [HBG-4kb off-target (2-nt mutant)]	90
GAGAACTTAGTGGGGGAAAGCAAGCAGAGAGTATAT (double strand) [HBG-4kb on-target]	29.5

From paper PMC6146835
